Measured values from patent US20090118183A1 (AFFYMAX, published 2009).
Where two headings read alike, the source gives them in different places. One block for each binder: values may come before it. Bridge positions count the residues as written; N and C are the ends. Square brackets hold non-standard residues; d marks the D form. Ends that are not written are not given here. 1Nal = N[C@@H](Cc1cccc2ccccc12)C(=O)O; Sar = CNCC(=O)O

What was measured:
[1] = biological target: T1, human EPO-R (human, UniProt P19235 25-508); assay: cell-based or functional assay
T1 sequence (looked up): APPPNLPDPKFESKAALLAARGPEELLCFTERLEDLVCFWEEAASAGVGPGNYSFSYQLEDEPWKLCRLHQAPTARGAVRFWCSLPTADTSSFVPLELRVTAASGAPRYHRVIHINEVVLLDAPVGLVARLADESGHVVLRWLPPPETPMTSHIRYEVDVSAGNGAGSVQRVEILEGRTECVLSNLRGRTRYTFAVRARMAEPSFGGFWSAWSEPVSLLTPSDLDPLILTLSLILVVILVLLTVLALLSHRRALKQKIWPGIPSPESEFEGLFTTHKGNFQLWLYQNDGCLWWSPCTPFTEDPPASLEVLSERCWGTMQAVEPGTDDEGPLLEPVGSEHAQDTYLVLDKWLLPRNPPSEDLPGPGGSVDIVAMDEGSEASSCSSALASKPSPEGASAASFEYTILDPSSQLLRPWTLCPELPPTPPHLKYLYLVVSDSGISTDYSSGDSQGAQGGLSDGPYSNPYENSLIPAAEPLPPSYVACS

[2] = biological target: T2, chimeric receptor comprising the extra-cellular portion of the human EPO receptor to the intra-cellular … (human, UniProt P19235 25-250; Q99062 651-836, limits assumed); assay: cell-based or functional assay
T2 sequence (looked up): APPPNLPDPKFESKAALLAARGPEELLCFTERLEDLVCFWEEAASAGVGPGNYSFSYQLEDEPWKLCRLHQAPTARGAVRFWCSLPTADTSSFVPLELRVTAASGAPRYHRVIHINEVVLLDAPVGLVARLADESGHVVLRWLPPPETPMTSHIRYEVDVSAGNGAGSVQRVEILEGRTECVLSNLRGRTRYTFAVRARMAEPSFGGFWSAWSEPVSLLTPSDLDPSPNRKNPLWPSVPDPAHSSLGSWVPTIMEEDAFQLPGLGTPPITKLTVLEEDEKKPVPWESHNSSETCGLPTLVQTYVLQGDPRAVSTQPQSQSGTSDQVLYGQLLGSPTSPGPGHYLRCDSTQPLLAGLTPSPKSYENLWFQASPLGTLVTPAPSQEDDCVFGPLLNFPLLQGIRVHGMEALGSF

[3] = biological target: T3, Recombinant Human EPO R/Fc Chimera (human, UniProt P19235 25-250); assay: radioligand competition: displacement of 125I-EPO from recombinant human EPO R/Fc, Protein-G Sepharose pull-down
T3 construct: extracellular domain; Bought reagent (R&D Systems, catalog 963-ER); also called recombinant EPOr extracellular domain fused to the Fc portion of human IgG1; recombinant erythropoietin receptor; not shown: Fc portion of human IgG1
T3 sequence (looked up): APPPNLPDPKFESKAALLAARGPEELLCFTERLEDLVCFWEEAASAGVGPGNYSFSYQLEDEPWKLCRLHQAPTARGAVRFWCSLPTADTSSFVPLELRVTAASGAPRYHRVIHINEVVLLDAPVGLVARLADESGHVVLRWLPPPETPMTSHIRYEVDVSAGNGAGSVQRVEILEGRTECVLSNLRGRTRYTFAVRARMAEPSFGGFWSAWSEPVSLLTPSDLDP

[4] = biological target: T1, human EPO-R; assay: cell-based or functional assay; remark: listed apart in the source
[5] = biological target: T2, chimeric receptor comprising the …; assay: cell-based or functional assay; remark: listed apart in the source
[6] = biological target: recombinant EPO-R (produced in Chinese Hamster Ovary cells as a fusion protein to a portion of the human … (human, UniProt P05187 489-506)); assay: competitive binding; column headed only 'IC50 (pM)'; taken as the AQ bead proximity assay against the biotinylated peptide tracer (SEQ ID NO: 4) per paragraph 299

Proliferation EC50 [1]: 72 nM | Reporter EC50 (pM) [2]: 150 pM
B1: Peptide III (SEQ ID NO: 3) (peptide)
peptide: Ac-GGLYACHMGPIT[1Nal]VCQPLR[Sar]
modifications: disulfide 6-15; also: homodimer: C-termini joined to alpha- and epsilon-amino groups of a lysine linker carrying spacer and PEG, not shown

IC50 [3]: 0.111 nM | Proliferation EC50 (pM) [4]: 165 pM | Reporter EC50 (pM) [5]: 195 pM
B2: Peptide I (SEQ ID NO: 2) (peptide)
peptide: Ac-GGLYACHMGPIT[1Nal]VCQPLR[Sar]K
modifications: disulfide 6-15; not fully specified (residue 21); printed as (AcG)GLYACHMGPIT(1-nal)VCQPLR(MeG)K; also: homodimer, Lys21 epsilon-N joined to branched tertiary amide linker carrying PEG
notes: also called Peptide 1

IC50 [6]: 0.11 nM
B3: Peptide II (SEQ ID NO: 3) (peptide)
peptide: Ac-GGLYACHMGPIT[1Nal]VCQPLR[Sar]
modifications: disulfide 6-15; also: homodimer: C-termini joined to alpha- and epsilon-amino groups of a lysine linker carrying spacer and PEG, not shown
